# From the RNAGym collection of RNA variant scans (doi:10.1093/nar/gkz1192)
# B1: CPEB3 Ribozyme (parent)
# chain: UAACAGGGGGCCACAGCAGAAGCGUUCACGUCGCAGCCCCUGUCAGAUUCUGGUGAAUCUGCGAAUUCUGCUGUAUAUCUC
# Variants of: B1
# Assay: self-cleavage, relative activity (ratio to wild type); higher = more cleavage; in vitro, sequencing
# Summary of the method: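 For each CPEB3 ribozyme variant, relative activity is its cleaved/total read fraction divided by the unmutated ribozyme's. Barcoded error-prone PCR libraries were transcribed by T7 RNA polymerase (5 hours, 37°C) and held in DNase I for 15 min before an EDTA stop, with cleavage occurring throughout. Template-switching reverse transcription and Illumina sequencing were used to read the RNAs. A 5-read minimum applied, and results are the mean of three batches.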
row,Variant,self-cleavage
1,U43C G52C,0.77
2,U43C G52U,1.06
3,A45C A64U,0
4,A45C A64G,0.32
5,C44G C71U,0.15
6,C44G U60C,0.38
7,A45C U67C,0.15
8,A45C C62U,0.36
9,U43C U48A,0.29
10,U43C U48C,0.25
11,C44U U66A,0.51
12,U43C U76A,0.89
13,U43C U76G,0.69
14,U43C U76C,0.73
15,A45C A77G,0.25
16,A45C A77U,0.39
17,A45G A64G,0.65
18,A45G A64U,0.3
19,C44A U69C,0.17
20,C44A U69G,0.13
21,A45G U74G,1.21

row,Variant,self-cleavage
1,A45G U74C,1.1
2,A45G U74A,1.13
3,U43G C44U,0.14
4,A45C C59U,0.22
5,C44U U72A,0.14
6,C44U U72C,0.19
7,U43G A45U,0.18
8,U43G A45G,0.19
9,A45G G73A,1.16
10,A45G G73C,0.69
11,A45G G73U,1.29
12,C44A U72C,0.71
13,C44G A77G,0.62
14,C44U U74C,0.6
15,C44U U60C,0.52
16,C44U U60A,0.14
17,U43C G55C,0.33
18,U43C G55U,0.52
19,A45G A47U,0.28
20,A45G A47G,0.46
21,A45G A57G,0.66

row,Variant,self-cleavage
1,A45G A57U,0.43
2,A45G A57C,0.24
3,U43C C50A,0.31
4,U43C C50U,0.24
5,C44U U67A,0.14
6,C44U U67C,0.11
7,C44U U80A,0.46
8,C44U U80C,0.29
9,C44A U48C,0.32
10,A45G C62A,0.45
11,A45G C62U,0.22
12,A45G C62G,0.25
13,U43C C59A,0.12
14,U43C C59U,0.52
15,A45G C50U,0.74
16,A45G C50G,0.28
17,A45G A77U,0.9
18,A45G A77C,0.48
19,A45G A77G,0.87
20,C44U A77U,0.22
21,A45G G70U,0.33

row,Variant,self-cleavage
1,A45G G70A,0.42
2,U43C A75G,0.39
3,U43C A75U,0.62
4,U43C U66A,0.24
5,U43C U66C,0.33
6,U43C U66G,0.45
7,U43G U51C,0.2
8,C44A U80C,0.41
9,A45G G61A,0.82
10,A45G G61C,0.23
11,C44U A64G,0.21
12,C44U A64U,0.18
13,C44A U54A,0.59
14,C44A U54C,0.36
15,A45G G46A,0.29
16,A45G G46U,0.21
17,C44A U78C,0.38
18,C44A U78A,0.49
19,C44U U48C,0.44
20,C44A C68G,0.12
21,A45C U58C,0.33
